According to US20180194839A1 (Novartis, published 2018):
Where a chain is given by its changes, count along the chain named. Numbers in names are those of the source. Where two headings read alike, the source gives them in different places.

T1: recombinant human IL-17F (SEQ ID NO: 77) (human, UniProt Q96PD4 31-163)
T1 construct: homodimer; also called huIL-17F; rhuIL-17F
T1 sequence: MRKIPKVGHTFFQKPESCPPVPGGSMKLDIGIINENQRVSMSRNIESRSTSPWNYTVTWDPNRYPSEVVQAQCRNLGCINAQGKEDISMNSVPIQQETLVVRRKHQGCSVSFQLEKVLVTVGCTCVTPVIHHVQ

T2: recombinant cynomolgus IL-17F (SEQ ID NO: 80) (cynomolgus monkey, UniProt Q96PD4 31-163 (human entry), limits assumed)
T2 construct: also called cynoIL-17F; cyno IL-17F
T2 chain: T1 sequence with G23E, I30T, R74K, N75H, V101L, I130V

T3: recombinant rat IL-17A (SEQ ID NO: 85) (rat, UniProt Q61453 18-150)
T3 construct: also called rratIL-17A; rIL-17A
T3 sequence: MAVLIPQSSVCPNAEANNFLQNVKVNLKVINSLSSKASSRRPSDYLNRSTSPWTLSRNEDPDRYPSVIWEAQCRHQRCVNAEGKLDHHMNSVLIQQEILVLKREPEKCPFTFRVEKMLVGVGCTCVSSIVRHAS

T4: recombinant cynomolgus IL-17A (SEQ ID NO: 79) (cynomolgus monkey, UniProt Q16552 24-155 (human entry), limits assumed)
T4 construct: also called cynoIL-17A; cyno IL-17A
T4 chain: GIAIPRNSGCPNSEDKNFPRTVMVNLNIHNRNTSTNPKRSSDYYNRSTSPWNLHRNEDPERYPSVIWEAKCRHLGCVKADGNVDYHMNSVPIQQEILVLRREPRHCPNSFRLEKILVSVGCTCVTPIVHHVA

T5: recombinant mouse IL-17A/F (R&D Systems Cat#5390-IL) (mouse, UniProt Q62386 26-158; Q7TNI7 29-161, limits assumed)
T5 construct: bought heterodimer; also called mIL-17A/F; rmIL-17A/F
T5 sequence (looked up) 1: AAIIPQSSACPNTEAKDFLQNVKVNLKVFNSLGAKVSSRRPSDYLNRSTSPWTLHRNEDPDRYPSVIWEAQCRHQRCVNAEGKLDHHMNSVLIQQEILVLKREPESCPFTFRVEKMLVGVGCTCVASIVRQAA
T5 sequence (looked up) 2: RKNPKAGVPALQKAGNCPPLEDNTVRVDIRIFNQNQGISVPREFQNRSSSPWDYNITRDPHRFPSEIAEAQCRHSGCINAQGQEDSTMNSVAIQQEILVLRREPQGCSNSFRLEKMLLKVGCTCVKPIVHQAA

T6: recombinant human IL-17A/F heterodimer (human, UniProt Q16552 24-155; Q96PD4 31-163, limits assumed)
T6 construct: heterodimer of an IL-17A subunit and an IL-17F subunit; also called huIL-17A/F; rhuIL-17A/F
T6 sequence (looked up) 1: T4 chain with A3T, S8P, S34N, V77I, K78N, R104P
T6 sequence (looked up) 2: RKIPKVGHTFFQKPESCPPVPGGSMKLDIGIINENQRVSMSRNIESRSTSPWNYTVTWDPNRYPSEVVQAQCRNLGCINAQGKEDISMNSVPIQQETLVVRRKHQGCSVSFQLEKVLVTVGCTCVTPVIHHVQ

T7: marmoset IL-17A (SEQ ID NO: 82) (marmoset monkey)
T7 construct: also called marmIL-17A
T7 chain: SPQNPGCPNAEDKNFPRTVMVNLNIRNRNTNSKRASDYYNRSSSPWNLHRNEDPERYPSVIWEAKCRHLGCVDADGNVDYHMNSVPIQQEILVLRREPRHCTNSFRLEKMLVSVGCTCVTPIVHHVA

T8: recombinant human IL-17A (SEQ ID NO: 78) (human, UniProt Q16552 24-155, limits assumed)
T8 construct: homodimer; also called huIL-17A; hulL-17A
T8 sequence: T4 chain with A3T, S8P, S34N, V77I, K78N, R104P

T9: recombinant mouse IL-17A (SEQ ID NO: 83) (mouse, UniProt Q62386 26-158)
T9 construct: also called mIL-17A; rmIL-17A
T9 sequence: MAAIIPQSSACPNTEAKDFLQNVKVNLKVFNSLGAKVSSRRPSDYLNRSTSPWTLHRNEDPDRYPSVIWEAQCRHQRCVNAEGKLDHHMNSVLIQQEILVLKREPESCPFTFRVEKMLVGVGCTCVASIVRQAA

B1: XAB4 (antibody, human IgG1, kappa, V domains shown)
VH: EVQLVESGGDLVQPGGSLRLSCAASGFTFSSYWMSWVRQAPGKGLEWVANIKQDGSEKYYVDSVKGRFTISRDNAKNSLYLQMNSLRAEDTAVYYCARDRGSLYYWGQGTLVTVSS
VL: AIQLTQSPSSLSASVGDRVTITCRPSQGINWELAWYQQKPGKAPKLLIYDASSLEQGVPSRFSGSGSGTDFTLTISSLQPEDFATYYCQQFNSYPLTFGGGTKVEIKR
notes: also called MB435 N56Q
B2: XAB1 (antibody, human IgG1, kappa, V domains shown)
VH: B1 VH
VL: B1 VL with N30I, W31S, E32A, Q56N
notes: human IgG1/kappa monoclonal antibody; also called parental XAB1; XAB1 IgG

What was measured:
[1] = biological target: T1, recombinant human IL-17F (SEQ ID NO: 77); test: ELISA, coated cytokine, Ab 10 µg/ml;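 note: antibodies incubated 3 h at room temperature on the coated wells, binding detected with alkaline phosphatase-conjugated anti-IgG secondary antibodies matching the species of each test antibody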
Protocol: The antibodies of the disclosure were added at 10 μg/ml (100 μl/well) for 3 h at room temperature. […] They were added at 1 or 5 μg/ml, in PBS, 0.02% NaN₃ for 3 h at RT.
Plates were then washed 4 times with PBS/0.05% Tween 20/0.02% NaN₃. Then, an alkaline phosphatase-conjugated goat anti-human IgG antibody (Sigma Cat# A9544) was added to the wells with human antibodies at a dilution of 1/20000 (100 μl/well). An alkaline phosphatase-conjugated goat anti-mouse IgG antibody (Sigma Cat# A1047) was added to the wells with mouse antibodies at a dilution of 1/10000 (100 μl/well). An alkaline phosphatase-conjugated rabbit anti-goat IgG antibody (Sigma Cat# A7650) was added to the wells with goat antibodies at a dilution of 1/1000 (100 μl/well) and an alkaline phosphatase-conjugated rabbit anti rat-IgG antibody (Sigma Cat# A6066) was added to the wells with rat antibodies at a dilution of 1/20000 (100 μl/well).

[2] = biological target: T1, recombinant human IL-17F (SEQ ID NO: 77); test: ELISA, coated antigen, Ab 1 µg/ml
Protocol: (§1) A titration of the antibodies of interest on different antigens was carried out.
(§2) Plates were then washed 4 times with PBS/0.05% Tween 20 (Sigma Cat# P7949)/0.02% NaN₃.
(§3) Plates were then washed 4 times with PBS/0.05% Tween 20/0.02% NaN₃. Then, an alkaline phosphatase-conjugated goat anti-human IgG antibody (Sigma Cat# A9544) was added to the wells that received test antibody at a dilution of 1/20000 (100 μl/well) for 2 h 30 min at RT. To the wells, that received mouse mAb, an alkaline phosphatase-conjugated goat anti-mouse IgG antibody (Sigma Cat# A7434) was added at a dilution of 1/10000 (100 μl/well) for 2 h 30 min at RT. An alkaline phosphatase conjugated mouse anti goat IgG antibody (Sigma Cat# A8062) was added to the goat antibodies at a dilution of 1/50000 (100 μl/well) for 2 h 30 min at RT. Plates were then washed 4 times and 100 μl of the substrate (p-nitrophenyl phosphate tablets; Sigma; 5 mg Cat#N9389; 20 mg Cat#. N2765) dissolved in diethanolamine buffer pH 9.8, to give a final concentration of 1 mg/ml, were added to each well.

[3] = biological target: T2, recombinant cynomolgus IL-17F (SEQ ID …); test: ELISA, coated antigen, Ab 1 µg/ml
Protocol: as §1, §2, §3

[4] = biological target: T3, recombinant rat IL-17A (SEQ ID NO: 85); test: ELISA, coated antigen, Ab 1 µg/ml
Protocol: as §1, §2, §3

[5] = biological target: T4, recombinant cynomolgus IL-17A (SEQ ID …); test: ELISA, coated antigen, Ab 1 µg/ml
Protocol: as §1, §2, §3

[6] = biological target: T5, recombinant mouse IL-17A/F (R&D Systems …); test: SPR (Biacore), captured antibody, antigen as analyte
Protocol: (§4) One chip surface was coated and reused without significant loss of binding capacity. Ligand concentrations were chosen to start below the KD and to end at a concentration higher than ten times the KD.
(§5) The kinetic traces were evaluated with the Biacore™ T200 Control Software version 1.0. The full set of these traces with increasing concentrations is taken together and is called a run. Two zero concentration samples (blank runs) were included in each analyte concentration series to allow double-referencing during data evaluation

[7] = biological target: T3, recombinant rat IL-17A (SEQ ID NO: 85); test: as above
Protocol: as §4, §5

[8] = biological target: T6, recombinant human IL-17A/F heterodimer; test: as above
Protocol: as §4, §5

[9] = biological target: T7, marmoset IL-17A (SEQ ID NO: 82); test: as above
Protocol: as §4, §5

[10] = biological target: T8, recombinant human IL-17A (SEQ ID NO: 78); test: as above
Protocol: as §4, §5

[11] = biological target: T9, recombinant mouse IL-17A (SEQ ID NO: 83); test: as above
Protocol: as §4, §5

[12] = biological target: T4, recombinant cynomolgus IL-17A (SEQ ID …); test: as above
Protocol: as §4, §5

[13] = biological target: T3, recombinant rat IL-17A (SEQ ID NO: 85); test: as above; remark: listed apart in the source
Protocol: as §4, §5

[14] = biological target: T6, recombinant human IL-17A/F heterodimer; test: as above; remark: listed apart in the source
Protocol: as §4, §5

[15] = biological target: T8, recombinant human IL-17A (SEQ ID NO: 78); test: as above; remark: listed apart in the source
Protocol: as §4, §5

Binder	O.D. [1] [O.D.]	O.D. [2] [O.D.]	O.D. [3] [O.D.]	O.D. [4] [O.D.]	O.D. [5] [O.D.]	Kd [6] [nM]	Kd [7] [nM]	Kd [8] [nM]	Kd [9] [nM]	Kd [10] [pM]	Kd [11] [nM]	Kd [12] [nM]	Kd [13] [nM]	koff [13] [s⁻¹]	Kd [14] [nM]	koff [14] [s⁻¹]	Kd [15] [nM]	koff [15] [s⁻¹]
B1	0.035	0.049	0.085	1.77	1.93	0.26	0.084	< 0.011	0.018	5.7	0.16	0.031						
B2													0.301	0.000164	1.48	0.00134	0.0403	9.39e-05
